Measured values as given in US20100317830A1, “BACE455, AN ALTERNATIVE SPLICE VARIANT OF THE HUMAN BETA-SECRETASE” (EXONHIT THERAPEUTICS SA, priority 2003, published 2010).
Where a name gives a salt, the structure may show the parent alone. Square brackets hold non-standard residues; d marks the D form. Peptide text beside a SMILES is read from it. * marks the point of attachment. Sta = CC(C)C[C@H](N)[C@@H](O)CC(=O)O; Isovaleryl = CC(C)CC(=O)*

Legend:
BACE455 = target: T1, BACE455 (Homo sapiens, UniProt P56817, DEL190-235); assay: beta-secretase fluorogenic assay (Substrate V) with membrane extracts of HEK293-BACE455 cells plus protease inhibitors; assay type: biochemical; settings: for inhibition at 100 µM / Percentage of BACE455 inhibition by various inhibitors (mean percentage of cleavage inhibition): BACE455 cell extract; for inhibition at 100 µM / Percentage of BACE455 inhibition by various inhibitors (mean percentage of cleavage inhibition) / effect on substrate cleavage activity of BACE455 extracts (in words): inhibitor 100 μM; for inhibition at 100 µM: read-out: Percentage of BACE455 inhibition by various inhibitors (mean percentage of cleavage inhibition); for BACE455 activity (percentage of activity +−SEM): compared to mock transfected control; for % Inhibition of BACE activity by Inhibitor III: BACE455, 100 μM
T1 construct: full length cDNA of BACE501 and BACE455 in TOPO TA vector were subcloned into pcDNA3; expressed in transfected cells; Triton X100 membrane extract
Method: (§1) Cells were harvested and centrifuged at 1,500 rpm for 5 minutes to remove the medium. The cell pellets were washed once with PBS. To further compare BACE455 activity with that of BACE501, an in vitro assay was developed based on quenched fluorogenic substrate (Substrate V, Calbiochem) containing the Swedish mutation KM->NL in APP. Sequence of the peptide was: MCA-[…](DNP)-CONH2 (SEQ ID NO: 32), containing the Swedish APP mutation (in boldface), γ-amino-4-methyl coumarin (MCA) as the fluorophore and dinotrophenol (DNP) as the quencher. When cell lysates of BACE455 and BACE501 expressing cells are incubated with the fluorogenic Substrate V, upon cleavage by the protease, the fluorophore is separated from the quenching group, restoring the full fluorescence yield of the donor. (Ermolief et al., Biochemistry 39: 12450-12456 (2000); Ellerby et al. J. Neurosci. 17: 6165-6178 (1997); Capel et al., J Biol. Chem. 277: 5637-43 (2002)).
(§2) Mock transfected HEK293 and HEK293-BACE455 and -BACE501cells were harvested by scraping in ice-cold 20 mM Tris/150 mM NaCl, pH 7.5 plus Complete Protease Inhibitor Cocktail (Roche Diagnostics). Cell were lysed by repeated freeze-thawing and a postnuclear fraction was generated after centrifugation at 500 g for 10 min, Pellets were resuspended in membrane extraction buffer (20 mM MES/1% Triton X100) containing protease inhibitor cocktail and incubated on ice for 30 minutes. The assay was carried out in black 96 well plates (ATGC) in a volume of 200 μl of the membrane preparation diluted in reaction buffer (25 mM MES/25 mM Sodium Acetate/25 mM Tris, pH 4.4) containing 15 μM peptide Substrate V. These components were equilibrated to 37[deg.] C. for various times and the reaction initiated by addition of substrate. Excitation was performed at 320 nm and the reaction kinetics were monitored by measuring the fluorescence emission at 420 nm. To test the effect of pH, lysed cells were resuspended in 25 mM MES/25 mM Sodium Acetate/25 mM Tris adjusted at pH values ranging from 4.4 to 8 and then incubations were performed as above. Controls included purified recombinant human BACE501 protein (R&D Systems), or substrate alone and background fluorescence is subtracted to recorded BACE isoforms activities.
(§3) Protease inhibitors were added to 100 μl reaction buffer (25 mM MES/25 mM Sodium Acetate/25 mM Tris, pH 4.4) at a final concentration of 100 μM. […] Membrane preparations were obtained as in Example 4 and incubated with the inhibitors for 10 min at room temperature. Reaction was then started by adding 100 μl of reaction buffer containing the substrate (15 μM final concentration) and monitored as described in Example 4. For the dose-response experiment of FIG. 3, Inhibitor III was assayed at various concentrations ranging from 100 μM to 100 nM
(§4) Membrane preparations were obtained as in Example 4 and incubated in assay buffer (25 mM MES/25 mM Sodium Acetate/25 mM Tris) adjusted to final pH ranging from 4.4 to 8, in the presence or absence of BACE inhibitor III (100 μM final concentration). Reaction was started by adding 100 μl of reaction buffer (pH ranging from 4.4 to 8) containing the substrate (15 μM final concentration) and monitored as described in Example 4. We determined in these conditions the percentage of inhibition of BACE by Inhibitor III.

BACE501 = target: T2, BACE501 (Homo sapiens, UniProt P56817); assay: beta-secretase fluorogenic assay (Substrate V) with membrane extracts of HEK293-BACE501 cells plus protease inhibitors; assay type: biochemical; settings: for inhibition at 100 µM / Percentage of inhibition by various inhibitors (mean percentage of cleavage inhibition), BACE501: BACE501 cell extract; for inhibition at 100 µM / Percentage of inhibition by various inhibitors (mean percentage of cleavage inhibition), BACE501 / effect on substrate cleavage activity of BACE501 extracts (in words): inhibitor 100 μM; for inhibition at 100 µM: read-out: Percentage of inhibition by various inhibitors (mean percentage of cleavage inhibition), BACE501; for BACE501 activity (percentage of activity +−SEM): compared to mock transfected control; for % Inhibition of BACE activity by Inhibitor III: BACE501, 100 μM
T2 construct: full length cDNA of BACE501 and BACE455 in TOPO TA vector were subcloned into pcDNA3; expressed in transfected cells; Triton X100 membrane extract
Method: as §1, §2, §3, §4

[1] = test system: endogenously expressed APP isoforms in SH-SY5Y cells; assay: Western blot of C99 fragment generation in transfected SH-SY5Y cells; assay type: cell-based, human; settings: BACE455 SH-SY5Y cells
Method: SH-SY5Y cells for transfection were grown to 80% confluence in Dulbecco's modified Eagle's medium (DMEM) with 10% fetal bovine serum. Transfections were performed using LipofectAmine Plus (Gibco-BRL) with […] per 10*10<6>cells. Three days posttransfection, cells were passaged into medium containing G418 at a concentration of 400 μg/ml. After twenty days growth in selective medium, individual clones were selected and plated into each well of one 96 well plate containing growth medium plus G418. Clones were expanded from the 96 well plate to a 24 well plate and then to a 6 well plate. Clones which had lost initial neuronal-like morphology were not amplified. BACE455 or BACE501 expression in selected clones was assayed by Western Blotting and immunohistochemical analysis using Cterminal-specific antibody.
Cells were harvested 3 days after plating. Cells were washed twice with PBS and lysed in 1 ml CellLytic solution (Sigma) plus protease inhibitors cocktail (Roche Diagnostics) for 15 min. […] Following electrotransfer of the separated polypeptides to PVDF membranes, APP and C99 proteolytic fragment were detected with C-terminal-specific rabbit anti-APP antibody (Serotec, UK) at 1/500 in PBS-Tween 20 0.1%, and the antibody-antigen complexes were visualized using alkaline phosphatase conjugated goat anti-rabbit antibodies (1/5000). […]

[2] = test system: endogenously expressed APP in SH-SY5Y cells; assay: Aβ1-40 double antibody sandwich ELISA on conditioned medium of transfected SH-SY5Y cells; assay type: cell-based, human; settings: Gleevec treatment of BACE455 cells
Method: Cells were harvested 3 days after plating and processed for Western Blotting experiments as described above.
Cell culture supernatants harvested 72 hours after plating were analyzed in a standard double antibody isoform-specific Aβ1-40 ELISA (BioSource International) as follows. […] The detecting antibody is specific for Abeta 1-40 and the conjugated secondary antibody is an anti-rabbit IgG conjugated to horseradish peroxydase. Synthetic human Aβ1-40 standard peptides are serially diluted in the supplied sample diluent for the generation of standard curves.
Human Abeta 1-40 standards were added after washing the plate, as well as 100 μl/well of sample, e.g., conditioned medium of transfected cells. The plate was incubated at 4[deg.] C. overnight. The next day, after washing the plate four times, 100 μl/well rabbit detection antibody was added and incubated for 2 hours on an orbital plate shaker at 20 degree C. […] 100 μl/well stop solution was added and absorbance of each well was read at 450 nm within two hours, with a solution of 100 μl each of chromogen and stop solution as the blank. […] The samples with absorbance values falling within the standard curve were extrapolated (by comparison to the values obtained for the A-β40 and A-β42 standard peptides analyzed on the same plate) from the standard curves and expressed in pg/ml culture medium.

T1 sequence (P56817 with tags, fused parts or gaps DEL190-235): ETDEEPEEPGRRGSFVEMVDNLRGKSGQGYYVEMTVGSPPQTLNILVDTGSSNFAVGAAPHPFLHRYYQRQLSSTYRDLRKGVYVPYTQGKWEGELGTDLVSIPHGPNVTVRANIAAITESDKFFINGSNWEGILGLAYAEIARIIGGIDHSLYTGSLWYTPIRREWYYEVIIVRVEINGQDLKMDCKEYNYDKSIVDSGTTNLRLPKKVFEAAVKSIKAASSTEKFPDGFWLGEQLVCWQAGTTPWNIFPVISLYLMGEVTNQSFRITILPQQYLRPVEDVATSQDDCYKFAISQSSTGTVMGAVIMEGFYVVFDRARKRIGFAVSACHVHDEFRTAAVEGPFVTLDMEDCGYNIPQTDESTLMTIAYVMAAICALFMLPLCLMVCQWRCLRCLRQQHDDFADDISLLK
T2 sequence (P56817 46-501): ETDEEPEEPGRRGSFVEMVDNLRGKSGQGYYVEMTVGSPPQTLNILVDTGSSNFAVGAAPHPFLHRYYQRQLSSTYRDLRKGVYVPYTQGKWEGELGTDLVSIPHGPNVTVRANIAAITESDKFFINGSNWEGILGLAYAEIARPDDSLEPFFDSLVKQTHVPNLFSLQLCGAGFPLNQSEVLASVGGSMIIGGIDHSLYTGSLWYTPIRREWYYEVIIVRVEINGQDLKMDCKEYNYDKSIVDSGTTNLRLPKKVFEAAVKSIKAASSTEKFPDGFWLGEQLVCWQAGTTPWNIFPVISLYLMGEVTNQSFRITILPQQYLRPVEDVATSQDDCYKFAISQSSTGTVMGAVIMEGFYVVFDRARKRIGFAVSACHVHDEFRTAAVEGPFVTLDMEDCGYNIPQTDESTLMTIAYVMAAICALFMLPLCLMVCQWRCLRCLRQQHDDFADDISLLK

CC(C)C[C@H](NC(=O)[C@@H](NC(=O)N[C@@H](Cc1ccccc1)C(=O)O)[C@@H]1CCN=C(N)N1)C(=O)N[C@H](C=O)Cc1ccccc1 [Chymostatin]
inhibition at 100 µM (BACE455; pH 4.4): 25.9% | inhibition at 100 µM (BACE501; pH 4.4): 20.4%

CC(=O)N[C@@H](CC(C)C)C(=O)N[C@@H](CC(C)C)C(=O)N[C@H](C=O)CCCNC(=N)N [Leupeptin]
inhibition at 100 µM (BACE455; pH 4.4): 17.3% | inhibition at 100 µM (BACE501; pH 4.4): 8.03%

CC(C)CCNC(=O)[C@H](CC(C)C)NC(=O)[C@H]1O[C@@H]1C(=O)O [E-64c, E64c]
Percentage of BACE455 inhibition by various inhibitors (mean percentage of cleavage inhibition) (BACE455; pH 4.4): 12.23% | Percentage of inhibition by various inhibitors (mean percentage of cleavage inhibition), BACE501 (BACE501; pH 4.4): 13.14%

CC(C)CC(=O)N[C@H](C(=O)N[C@H](C(=O)N[C@@H](CC(C)C)[C@@H](O)CC(=O)N[C@@H](C)C(=O)N[C@@H](CC(C)C)[C@@H](O)CC(=O)O)C(C)C)C(C)C [Pepstatin A] (Isovaleryl-VV[Sta]A[Sta]-OH)
inhibition at 100 µM (BACE455; pH 4.4): 14.4% | effect on substrate cleavage activity of BACE455 extracts (in words) (BACE455): very weakly sensitive | inhibition at 100 µM (BACE501; pH 4.4): 13.1% | effect on substrate cleavage activity of BACE501 extracts (in words) (BACE501): very weakly sensitive

H-Glu-Val-Asn-Statine-Val-Ala-Glu-Phe-NH2 [Inhibitor III]
BACE455 activity (percentage of activity +−SEM) (BACE455; 1 μM inhibitor): 57.52+−9.08% | BACE455 activity (percentage of activity +−SEM) (BACE455; 10 μM inhibitor): 36.04+−4.13% | % Inhibition of BACE activity by Inhibitor III (BACE455; pH 4.4): 104.16% | % Inhibition of BACE activity by Inhibitor III (BACE455; pH 6.0): 15.97% | % Inhibition of BACE activity by Inhibitor III (BACE455; pH 8.0): 22.10% | Percentage of BACE455 inhibition by various inhibitors (mean percentage of cleavage inhibition) (BACE455; pH 4.4): 104.16% | effect on substrate cleavage activity of BACE455 extracts (in words) (BACE455): completely abolished | BACE501 activity (percentage of activity +−SEM) (BACE501; 1 μM inhibitor): 85.15+−2.93% | BACE501 activity (percentage of activity +−SEM) (BACE501; 10 μM inhibitor): 57.6+−3.12% | % Inhibition of BACE activity by Inhibitor III (BACE501; pH 4.4): 117.54% | % Inhibition of BACE activity by Inhibitor III (BACE501; pH 6.0): 13.23% | % Inhibition of BACE activity by Inhibitor III (BACE501; pH 8.0): 17.63% | Percentage of inhibition by various inhibitors (mean percentage of cleavage inhibition), BACE501 (BACE501; pH 4.4): 117.54% | effect on substrate cleavage activity of BACE501 extracts (in words) (BACE501): completely abolished

Cc1ccc(NC(=O)c2ccc(CN3CCN(C)CC3)cc2)cc1Nc1nccc(-c2cccnc2)n1 [Gleevec, imatinib mesylate]
generation of C99 peptide ([1]; 10 μM for the last 24 hours): strongly reduced | Aβ1-40 release (in words) [2]: strongly reduced

C[C@H]1CCC/C=C/[C@@H]2C[C@H](O)C[C@H]2[C@H](O)/C=C/C(=O)O1 [BFA, brefeldin A]
generation of C99 ([1]; 10 μg/ml during the last 8 hours): reduced generation of C99
